Measured values taken from patent publication US20060210570A1.

Each substance was assayed against prostasin (recombinant human, soluble, active two-chain form purified from conditioned medium of CHO cells transfected with full-length prostasin) (human) (UniProt Q16651) (assay: cell-based or functional assay).

Row | IC50 (nM), inhibition of prostasin amidolytic activity towards S2765 [nM] | Substance
1 | > 1000 | Alzheimer's amyloid β protein precursor inhibitor (APPI) (from UniProt P05067 287-344)
2 | 109 | sHAI-1 (obtained from R & D Systems, Inc.) (from UniProt O43278 36-449)
3 | 66 | sHAI-1B wildtype (soluble hepatocyte growth factor activator inhibitor-1B, entire extracellular domain) (from UniProt O43278 36-465)
